From the supplement of paper PMC9170038

Test system: MS2 coat protein
Assay: apparent KD of MS2 coat protein; designed switch direction (-1 OFF switch, 1 ON switch): -1; higher = weaker reporter binding
Outline: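 RNA switches sharing common flanks were transcribed by stalled E. coli RNA polymerase on Illumina chips. A doubling series of SNAP-549-labelled MS2 coat protein, from 0.7 or 1.5 nM to 3 µM, was applied in Tris-HCl pH 7.5 buffer with KCl, MgCl2, BSA, DTT, tRNA and Tween-20. Each step lasted 0.8–1.5 h at the bottom of the series and 10–20 min at the top. Normalised cluster fluorescence was curve-fitted, giving apparent KD as the per-design median over clusters.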

[1] = Eterna round: R95, input ligand: FMN 200 uM
[2] = Eterna round: R95, input ligand: microRNA oligo, concentration not stated
[3] = Eterna round: R95, input ligand: none
[4] = input ligand: microRNA oligo, concentration not stated

| Sequence | apparent KD of MS2 coat protein [1] [nM] | apparent KD of MS2 coat protein [2] [nM] | apparent KD of MS2 coat protein [3] [nM] | apparent KD of MS2 coat protein (input ligand: FMN 200 uM) [nM] | apparent KD of MS2 coat protein [4] [nM] | apparent KD of MS2 coat protein (input ligand: none) [nM] |
| --- | --- | --- | --- | --- | --- | --- |
| UAAUACAAGCAAAGAUCUUACAUGAGGAUCACCCAUGUGCUCGUCUUAUAAAGUACUAUCACGAAAGUGAUAGUACU [Mat - Sensor v3 - turn-off var 1 - Eli Mod - D94] (puzzle: Sensor v3, turn-off variant 1) | 29.3 | 202 | 34.6 |  |  |  |
| CCUUGACAUGAGGAUCACCCAUGUGAGGAUAUGAUGCGAUCGUCGAAAGACGAUAGCAUCAGAAGGCACAUAUG [Fiskers Ex 1 - 8] (Eterna round: R96, puzzle: Exclusion 1) |  |  |  | 91.8 | 12.8 | 24.4 |
| ACGCCGCAAGGAUAUACUUGCGGUGAUGUUCGAGUUCUUCUACUUGAGGAUCACCCAAGUAGAAGGUGCAAAAC [jl-ex2.4.60 ViennaUCT mod] (Eterna round: R97, puzzle: Exclusion 2) |  |  |  | 14.9 |  | 14 |
| UUGUUUUUUGAGGAUAUGCGACGUUUUUUCGUCGUAGAAGGCGAUACAUGAGGAUCACCCAUGUUUAUGGGCAU [LRO-Ex6-14] (puzzle: Exclusion 6) |  | 122 |  |  |  |  |
| AACUCGUUAGGAUAUACCGCCAACGAUACCUCGUGAAACAUACAUGAGGAUCACCCAUGUAGAAGGAGCGAGCA [Vearbe] (puzzle: Exclusion 2) |  | 15.7 |  |  |  |  |
| GCUUCGGCAGGAUAUACAAGCUUCGGCUGAAAAGUUGAAGUACAUGAGGAUCACCCAUGUAGAAGGGUUGAAGU [-25.7, -24.2 kcal, A 32% 3 bis, 3 bis] (Eterna round: R97, puzzle: Exclusion 2) |  |  |  | 45.6 |  | 60.1 |
| CUAGCGGAUGUAGGAUAUCGGACUGUUUCAGUCUGAGAAGGACAUGAGGAUCACCCAUGUAUAGCUACGUGAGUAGCUCGCUAG [JL ENG1 3.95] (Eterna round: R96, puzzle: Exclusion NG 1) |  |  |  | 38.1 | 15.3 | 22.8 |
| GGCUAGUCAGGAUAUACGAACAUGUCAAAAGACGUGAAGGGACAUGAGGAUCACCCAUGUAGAAGGGACUAGCA [salish99-ex2-12] (Eterna round: R96, puzzle: Exclusion 2) |  |  |  | 187 | 21 | 28 |
| UUUUUAUAUGAAGGAUAUACUUAACAUGAGGAUCACCCAUGUGGUGUUGUGAGUGAGUGAGUUUAGUAGAAGGUCAAUUCUUUG [JMF's solution 84] (Eterna round: R96, puzzle: Exclusion NG 2) |  |  |  | 397 | 344 | 347 |
| UCAUGUAUGUAGGAUAUCGAUGUCUGCGGACAUCGAGAAGGACGUACAUGAGGAUCACCCAUGUAACUUGCAUG [Exclusion 6 - B - 11:e] (puzzle: Exclusion 6) | 31.9 | 17.8 | 13.1 |  |  |  |
| AGGUGCUUCUGGAAACAUGAGGAUCACCCAUGUUGAGUUAGCGAGGAUAUCGGUAACAAUUGUUAUGAGAAGGCGCAAACCAGA [Ex NG3 #36] (Eterna round: R96, puzzle: Exclusion NG 3) |  |  |  | 17 | 12.5 | 20.7 |
| GAAUAGGCAGGAUAUACAUGAGGAUCACCCAUGUGCCGGCGAAAGGUACGUUCGAAAGGUAGAAGGGCCUAAAC [ChP 13.04.2015 #7] (puzzle: Exclusion 3) | 151 | 43.8 | 48.9 |  |  |  |
| UAAUAAAGUGUGAGGAUAUGCUGGUCCAUAGAUCAGCAGAAGGCACAUGAGGAUCACCCAUGUAAUAUAUAAAU [Mat - Exclusion 4 - JL Mod - D57] (puzzle: Brourd's mod of Exclusion 4) | 199 | 27.5 | 24.5 |  |  |  |
| AGUGCGUAUGUGAGGAUAUGCUGGUCCUUGGAUCGGCAGAAGGUACAUGAGGAUCACCCAUGUGGUGUCGUUCU [salish99_Bmod_ex4_104] (puzzle: Brourd's mod of Exclusion 4) | 94 | 409 | 261 |  |  |  |
| GCGCACCUACCAAAAGGUAGGCCAACAUGAGGAUCACCCAUGUAGGAUAUCGAUUGCUUUGCAGUCGAGAAGGACAUGAUGCGC [JL ENG3 3.80 Mod 8] (Eterna round: R96, puzzle: Exclusion NG 3) |  |  |  | 33.8 | 15.4 | 21.6 |
| AAUCCACAUGAGGAUCACCCAUGUUAGGAUAUCGCGGAGAUCGACUGCGGAAGUUCUGCGAGAAGGAGCGUGAU [Eternabot (L2) Solution 18] (Eterna round: R97, puzzle: Exclusion 1) |  |  |  | 51.6 |  | 44 |
| AGAGUGUGAGGAUAUAUGGUGAAGGUGAAGAGAGAGGAGGAGUAGAAGGUACAUGAGGAUCACCCAUGUUUGGA [JR_Exclu4_Sub075] (puzzle: Exclusion 4) | 32.1 | 33 | 40.8 |  |  |  |

| Sequence | apparent KD of MS2 coat protein [1] [nM] | apparent KD of MS2 coat protein [2] [nM] | apparent KD of MS2 coat protein [3] [nM] | apparent KD of MS2 coat protein (input ligand: FMN 200 uM) [nM] | apparent KD of MS2 coat protein [4] [nM] | apparent KD of MS2 coat protein (input ligand: none) [nM] |
| --- | --- | --- | --- | --- | --- | --- |
| AGCCACAGAGGAUAUACAUACAUCCAGUAGUUGAGAAGACUACAUGAGGAUCACCCAUGUAGAAGGCUGUGGCA [Omei Ex2 BD B3] (Eterna round: R97, puzzle: Exclusion 2) |  |  |  | 95.5 |  | 395 |
| GAGGUACAUGAGGAUCACCCAUGUGAGGAUAUAGGUAGAGAUUGAGAGAGGUGGAGGACUAGAAGGCACAGUGG [JR_Exclu1_Sub040] (puzzle: Exclusion 1) | 59.6 | 46 | 60.3 |  |  |  |
| UUUAAGGGAAUUAAGAUCACAUGAGGAUCACCCAUGUAUAUAUAGGAUAUCAGCUCGAUUAGAGCUGAGAAGGAUAUAUACAUA [ExNG3/6-A1] (Eterna round: R96, puzzle: Exclusion NG 3) |  |  |  | 126 | 79.7 | 165 |
| UUUUUCUCAGGAUAUACAUGAGGAUCACCCAUGUAUAUUAAGAAUAAUACAUGGGAAUGUAGAAGGGAGCUCAU [Omei Ex3 Pseudoloop 10] (Eterna round: R97, puzzle: Exclusion 3) |  |  |  | 101 |  | 129 |
| AGGCCUCGAGGAUAUACAUGAGGAUCACCCAUGUCAUAAUAGAUUGUUAUGAGACAUCGUAGAAGGCGAUGGCC [Eternabot (L2) Solution 98] (Eterna round: R97, puzzle: Exclusion 3) |  |  |  | 78.1 |  | 30 |
| CUAAAUCAUGUAGGAUAUGCGUGGCAAAGCUAUGCAGAAGGACAUGAGGAUCACCCAUGUGCUUCCGUCUGCGUACAGACGGUA [Mat - Exclusion NG 1 - Mod of JL - D21] (Eterna round: R96, puzzle: Exclusion NG 1) |  |  |  | 551 | 79.2 | 110 |
| AAGCUUUUUGGUGACCUCGACAUGAGGAUCACCCAUGUCGUAUUAGAACUUCGGACGAUGAUCGUGCUCGUCAUAAG [Eternabot (Original) Solution 43] (Eterna round: R97, puzzle: Sensor, turn-off variant 1) |  |  |  | 598 |  | 677 |
| AUAAAUCAUGUAGGAUAUGCGUGGCGAAGCUAUGCAGAAGGACAUGAGGAUCACCCAUGUGCUUGCGUCUGAGUACAGAUGCUA [Mat - Exclusion NG 1 - Mod of JL - D6] (Eterna round: R96, puzzle: Exclusion NG 1) |  |  |  | 264 | 77.1 | 91.8 |
| CGGCGACAUGAGGAUCACCCAUGUGAGGAUAUGACGGGAAAAGCGUGAGCGGUUUGUGUCAGAAGGCGCGUAGG [salish99_ex1_r4_084] (Eterna round: R97, puzzle: Exclusion 1) |  |  |  | 20.8 |  | 28.7 |
| UCAUGGUAGCAGGAUAUGCUUGUAAUUUUUUUUGCAGAAGGGCUUACAUGAGGAUCACCCAUGUGUUAGGUCUA [JR_E6_Sub068] (puzzle: Exclusion 6) |  | 30.7 |  |  |  |  |
| AUUAUAUAGAAAGGAUAUUGAUUAUUAUUUUAACAUGAGGAUCACCCAUGUAGCCUUAUGUAUAACAAGAAGGUUCAUUUAUUA [Title] (Eterna round: R96, puzzle: Exclusion NG 2) |  |  |  |  | 58.4 |  |
| UAGAUACAUGAGGAUCACCCAUGUGAGGAUAUGAGAAUUAUAUUAAAUGAAUGAAUUUUCAGAAGGCACAAAGG [JR_Ex1_Sub051] (Eterna round: R97, puzzle: Exclusion 1) |  |  |  | 482 |  | 221 |
| GCAGCUAGUUCAGGAUAUCAGCACGUGUAGUGCUGAGAAGGGAACAUGAGGAUCACCCAUGUGAUCAAUGCUGCAAUUUUAAUU [ENG1/12-A3] (Eterna round: R96, puzzle: Exclusion NG 1) |  |  |  | 780 | 461 | 2260 |
| GCGGAUCUAGGAUAUACAUGAGGAUCACCCAUGUAAACUCUCUUGGAUGACUACUAUUGUAGAAGGAGAUAAGC [Erlabeedle] (puzzle: Exclusion 3) |  | 24.4 |  |  |  |  |
| AAAUCUGCUGAGGAUAUGAUGACUGAGAGGUCAUCAGAAGGCGGUACAUGAGGAUCACCCAUGUCUAUGGGCAA [Ex-6 Malc#30] (puzzle: Exclusion 6) |  | 243 |  |  |  |  |
| UUUUCCAGAGGAUAUGCGAAUAAAUAAAACUUUUUUUUUUAACAUGAGGAUCACCCAUGUAGAAGGCUGCUUUU [Ex2 #27] (Eterna round: R97, puzzle: Exclusion 2) |  |  |  | 27.1 |  | 30.1 |
| GUGAAACAUGAGGAUCACCCAUGUGAGGAUAUGAUACUAUGUACUUCGGUACAUAGUAUCAGAAGGCACAGUGA [Ex1-3: 6] (puzzle: Exclusion 1) |  | 65.4 |  |  |  |  |
